Data as given in article PMC4056859.

Columns and labels:
[1] = target: ht-ADH single-tryptophan variant W167in (W49F:W87F) (Bacillus stearothermophilus); experiment: SEC
[2] = target: ht-ADH single-tryptophan variant W87in (W49F:W167Y) (Bacillus stearothermophilus); experiment: SEC

| Substance | stoichiometry N [1] | stoichiometry N [2] |
| --- | --- | --- |
| ht-ADH single-tryptophan variant W167in (W49F:W87F) (enzyme) | 4 |  |
| ht-ADH single-tryptophan variant W87in (W49F:W167Y) (enzyme) |  | 4 |
